Measured values taken from patent US20140179604A1 (U S A REPRESENTED BY THE DEPARTMENT OF VETERANS AFFAIRS, published 2014).
Non-standard residues stand in square brackets, D forms with d. No end group written: not given here. *: point of attachment. Desaminotyrosyl = O=C(CCc1ccc(O)cc1)*; NMeY = CN[C@@H](Cc1ccc(O)cc1)C(=O)O; Agmatine = N=C(N)NCCCCN*; Nle = CCCC[C@H](N)C(=O)O; Orn = NCCC[C@H](N)C(=O)O; dAbu = CC[C@@H](N)C(=O)O; Abu = CC[C@H](N)C(=O)O; Aoc = NCCCCCCCC(=O)O; Ava = NCCCCC(=O)O; GABA = NCCCC(=O)O

Key:
[1] = molecular target: T1, GHRH receptor (membrane receptors of human anterior pituitary cells) (human) (UniProt Q02643); assay: competition with 125I-JV-1-42, human pituitary membranes
T1 sequence (looked up): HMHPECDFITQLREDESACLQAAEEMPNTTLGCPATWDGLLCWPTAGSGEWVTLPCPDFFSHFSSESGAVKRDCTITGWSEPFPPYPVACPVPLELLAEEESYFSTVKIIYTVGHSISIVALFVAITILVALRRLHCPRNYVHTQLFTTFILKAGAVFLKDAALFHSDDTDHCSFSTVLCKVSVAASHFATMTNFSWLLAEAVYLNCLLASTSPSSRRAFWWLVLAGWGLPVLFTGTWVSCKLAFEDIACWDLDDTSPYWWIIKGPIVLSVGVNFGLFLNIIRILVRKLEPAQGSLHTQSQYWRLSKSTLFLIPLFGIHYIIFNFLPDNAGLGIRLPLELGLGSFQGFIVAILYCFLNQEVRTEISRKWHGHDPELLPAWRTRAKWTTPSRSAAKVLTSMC

[2] = molecular target: T1, GHRH receptor (membrane receptors of human anterior pituitary cells) (human); assay: competition with 125I-[His1,Nle27]hGHRH(1-32)NH2, human pituitary membranes
[3] = molecular target: T2, GHRH receptor (membrane receptors of human anterior pituitary cells) (human, UniProt Q02643 23-423); assay: as above
T2 construct: whole, on cells; Native receptor in a membrane fraction of purchased normal human pituitaries, not intact cells; also called hGHRH receptor; human pituitary membrane homogenates
T2 sequence (looked up): T1 sequence (looked up)

[4] = molecular target: T2, GHRH receptor (membrane receptors of …); assay: competition with 125I-JV-1-42, human pituitary membranes
Description: Normal human pituitaries were purchased from the National Hormone and Peptide Program (A. F. Parlow, Los Angeles, County Harbor-UCLA Medical Center, Torrance, Calif.).

P-27404 [N-Me-Tyr^1, D-Ala^2, Fpa5^6, Orn^12, Abu^15, Orn^21, Nle^27, Asp^28]hGHRH(1-29)NH-CH3 (peptide)
IC50 [1]: 0.87 nM
Relative affinity (Binding potency) vs JI-38 [1]: 5 JI-38 = 1
IC50 [2]: 1.12 nM
Relative affinity (Binding potency) compared to JI-38 [2]: 2.45 JI-38 = 1
Relative affinity (Binding potency) compared to hGHRH(1-29) (hGHRH(1-29)NH2 = 1) [2]: 6.83

[NMeY][dA]DAIFTQSYR[Orn]VL[Abu]QLSAR[Orn]LLQDI[Nle]D[Agmatine] (also called Peptide 20361) [P-20361 [N-Me-Tyr^1, D-Ala^2, Gln^8, Orn^12, Abu^15, Orn^21, Nle^27, Asp^28, Agm^29]hGHRH(1-29)NH2]
IC50 [3]: 1.19 nM
Relative affinity (Binding potency) compared to JI-38 [3]: 2.3 JI-38 = 1
Relative affinity (Binding potency) compared to hGHRH(1-29) [3]: 6.42 hGHRH(1-29)NH2 = 1
IC50 [4]: 0.82 nM
Relative affinity (Binding potency) vs JI-38 [4]: 5.3 JI-38 = 1

B1: P-25504 [Dat^1, D-Abu^2, Orn^12, Abu^15, Orn^21, Nle^27, Gab^30]hGHRH(1-30)NH2 (peptide)
peptide: [Desaminotyrosyl][dAbu]DAIFTNSYR[Orn]VL[Abu]QLSAR[Orn]LLQDI[Nle]SR[GABA]-NH2
SMILES: CCCC[C@H](NC(=O)[C@@H](NC(=O)[C@H](CC(=O)O)NC(=O)[C@H](CCC(N)=O)NC(=O)[C@H](CC(C)C)NC(=O)[C@H](CC(C)C)NC(=O)[C@H](CCCN)NC(=O)[C@H](CCCNC(=N)N)NC(=O)[C@H](C)NC(=O)[C@H](CO)NC(=O)[C@H](CC(C)C)NC(=O)[C@H](CCC(N)=O)NC(=O)[C@H](CC)NC(=O)[C@H](CC(C)C)NC(=O)[C@@H](NC(=O)[C@H](CCCN)NC(=O)[C@H](CCCNC(=N)N)NC(=O)[C@H](Cc1ccc(O)cc1)NC(=O)[C@H](CO)NC(=O)[C@H](CC(N)=O)NC(=O)[C@@H](NC(=O)[C@H](Cc1ccccc1)NC(=O)[C@@H](NC(=O)[C@H](C)NC(=O)[C@H](CC(=O)O)NC(=O)[C@@H](CC)NC(=O)CCc1ccc(O)cc1)[C@@H](C)CC)[C@@H](C)O)C(C)C)[C@@H](C)CC)C(=O)N[C@@H](CO)C(=O)N[C@@H](CCCNC(=N)N)C(=O)NCCCC(N)=O
notes: also called MR-504; Peptide 25504
IC50 [3]: 2.85 nM
Relative affinity (Binding potency) compared to JI-38 [3]: 0.96 JI-38 = 1
Relative affinity (Binding potency) compared to hGHRH(1-29) [3]: 2.68 hGHRH(1-29)NH2 = 1
IC50 [4]: 1.44 nM
Relative affinity (Binding potency) vs JI-38 [4]: 3.02 JI-38 = 1

B2: P-25503 [N-Me-Tyr^1, Abu^2, Orn^12, Abu^15, Orn^21, Nle^27, Gab^30]hGHRH(1-30)NH2 (peptide, from a related filing)
peptide: YADAIFTNSYRKVLGQLSARKLLQDIMSRQ
modifications: N-Me-Tyr^1; Abu^2; Orn^12; Abu^15; Orn^21; Nle^27; Gab^30 (in place of Gln^30); C-terminal -NH2
IC50 [1]: 1.18 nM
Relative affinity (Binding potency) vs JI-38 [1]: 3.67 JI-38 = 1

[NMeY]ADAIFTQSYR[Orn]VL[Abu]QLSAR[Orn]LLQDI[Nle]SR-NHMe (peptide, from a related filing) [P-27405 [N-Me-Tyr^1, Gln^8, Orn^12, Abu^15, Orn^21, Nle^27]hGHRH(1-29)NH-CH3]
IC50 [1]: 1.08 nM
Relative affinity (Binding potency) vs JI-38 [1]: 4.03 JI-38 = 1
IC50 [2]: 2.51 nM
Relative affinity (Binding potency) compared to JI-38 [2]: 1.09 JI-38 = 1
Relative affinity (Binding potency) compared to hGHRH(1-29) (hGHRH(1-29)NH2 = 1) [2]: 3.04

B3: P-27415 [N-Me-Tyr^1, Orn^12, Abu^15, Orn^21, Nle^27, Gab^30]hGHRH(1-30)NH-CH3 (peptide, from a related filing)
peptide: B2 peptide
modifications: N-Me-Tyr^1; Orn^12; Abu^15; Orn^21; Nle^27; Gab^30 (in place of Gln^30); C-terminal -NH-CH3
IC50 [1]: 3.02 nM
Relative affinity (Binding potency) vs JI-38 [1]: 1.44 JI-38 = 1

B4: P-27413 [Dat^1, Gln^8, His^11, Orn^12, Abu^15, His^20, Orn^21, Nle^27, Asp^28]hGHRH(1-29)NH-CH3 (peptide, from a related filing)
peptide: [Desaminotyrosyl]ADAIFTQSYH[Orn]VL[Abu]QLSAH[Orn]LLQDI[Nle]DR-NHMe
SMILES: CCCC[C@H](NC(=O)[C@@H](NC(=O)[C@H](CC(=O)O)NC(=O)[C@H](CCC(N)=O)NC(=O)[C@H](CC(C)C)NC(=O)[C@H](CC(C)C)NC(=O)[C@H](CCCN)NC(=O)[C@H](Cc1c[nH]cn1)NC(=O)[C@H](C)NC(=O)[C@H](CO)NC(=O)[C@H](CC(C)C)NC(=O)[C@H](CCC(N)=O)NC(=O)[C@H](CC)NC(=O)[C@H](CC(C)C)NC(=O)[C@@H](NC(=O)[C@H](CCCN)NC(=O)[C@H](Cc1c[nH]cn1)NC(=O)[C@H](Cc1ccc(O)cc1)NC(=O)[C@H](CO)NC(=O)[C@H](CCC(N)=O)NC(=O)[C@@H](NC(=O)[C@H](Cc1ccccc1)NC(=O)[C@@H](NC(=O)[C@H](C)NC(=O)[C@H](CC(=O)O)NC(=O)[C@H](C)NC(=O)CCc1ccc(O)cc1)[C@@H](C)CC)[C@@H](C)O)C(C)C)[C@@H](C)CC)C(=O)N[C@@H](CC(=O)O)C(=O)N[C@@H](CCCNC(=N)N)C(=O)NC
IC50 [1]: 2.45 nM
Relative affinity (Binding potency) vs JI-38 [1]: 1.78 JI-38 = 1

B5: P-21301 [N-Me-Tyr^1, Orn^12, Abu^15, Orn^21, Nle^27, Asp^28, Amc^30]hGHRH(1-30)NH2 (peptide, from a related filing)
peptide: [NMeY]ADAIFTNSYR[Orn]VL[Abu]QLSAR[Orn]LLQDI[Nle]DR[Aoc]-NH2
modifications: N-terminus assumed
SMILES: CCCC[C@H](NC(=O)[C@@H](NC(=O)[C@H](CC(=O)O)NC(=O)[C@H](CCC(N)=O)NC(=O)[C@H](CC(C)C)NC(=O)[C@H](CC(C)C)NC(=O)[C@H](CCCN)NC(=O)[C@H](CCCNC(=N)N)NC(=O)[C@H](C)NC(=O)[C@H](CO)NC(=O)[C@H](CC(C)C)NC(=O)[C@H](CCC(N)=O)NC(=O)[C@H](CC)NC(=O)[C@H](CC(C)C)NC(=O)[C@@H](NC(=O)[C@H](CCCN)NC(=O)[C@H](CCCNC(=N)N)NC(=O)[C@H](Cc1ccc(O)cc1)NC(=O)[C@H](CO)NC(=O)[C@H](CC(N)=O)NC(=O)[C@@H](NC(=O)[C@H](Cc1ccccc1)NC(=O)[C@@H](NC(=O)[C@H](C)NC(=O)[C@H](CC(=O)O)NC(=O)[C@H](C)NC(=O)[C@H](Cc1ccc(O)cc1)NC)[C@@H](C)CC)[C@@H](C)O)C(C)C)[C@@H](C)CC)C(=O)N[C@@H](CC(=O)O)C(=O)N[C@@H](CCCNC(=N)N)C(=O)NCCCCCCCC(N)=O
IC50 [1]: 2.99 nM
Relative affinity (Binding potency) vs JI-38 [1]: 1.45 JI-38 = 1

B6: P-20351 [Ac-N-Me-Tyr^1, D-Ala^2, Gln^8, Orn^12, Abu^15, Orn^21, Nle^27, Asp^28, Agm^29]hGHRH(1-29)NH2 (peptide)
peptide: Ac-[NMeY][dA]DAIFTQSYR[Orn]VL[Abu]QLSAR[Orn]LLQDI[Nle]D[Agmatine]
SMILES: CCCC[C@H](NC(=O)[C@@H](NC(=O)[C@H](CC(=O)O)NC(=O)[C@H](CCC(N)=O)NC(=O)[C@H](CC(C)C)NC(=O)[C@H](CC(C)C)NC(=O)[C@H](CCCN)NC(=O)[C@H](CCCNC(=N)N)NC(=O)[C@H](C)NC(=O)[C@H](CO)NC(=O)[C@H](CC(C)C)NC(=O)[C@H](CCC(N)=O)NC(=O)[C@H](CC)NC(=O)[C@H](CC(C)C)NC(=O)[C@@H](NC(=O)[C@H](CCCN)NC(=O)[C@H](CCCNC(=N)N)NC(=O)[C@H](Cc1ccc(O)cc1)NC(=O)[C@H](CO)NC(=O)[C@H](CCC(N)=O)NC(=O)[C@@H](NC(=O)[C@H](Cc1ccccc1)NC(=O)[C@@H](NC(=O)[C@H](C)NC(=O)[C@H](CC(=O)O)NC(=O)[C@@H](C)NC(=O)[C@H](Cc1ccc(O)cc1)N(C)C(C)=O)[C@@H](C)CC)[C@@H](C)O)C(C)C)[C@@H](C)CC)C(=O)N[C@@H](CC(=O)O)C(=O)NCCCCNC(=N)N
notes: also called MR-351; Peptide 20351
IC50 [3]: 3.87 nM
Relative affinity (Binding potency) compared to JI-38 [3]: 0.71 JI-38 = 1
Relative affinity (Binding potency) compared to hGHRH(1-29) [3]: 1.98 hGHRH(1-29)NH2 = 1
IC50 [4]: 3.44 nM
Relative affinity (Binding potency) vs JI-38 [4]: 1.26 JI-38 = 1

[NMeY]ADAIFTQSYR[Orn]VL[Abu]QLSAR[Orn]LLQDI[Nle]DR-NHMe (peptide, from a related filing) [P-27406 [N-Me-Tyr^1, Gln^8, Orn^12, Abu^15, Orn^21, Nle^27, Asp^28]hGHRH(1-29)NH-CH3]
IC50 [1]: 0.3 nM
Relative affinity (Binding potency) vs JI-38 [1]: 14.5 JI-38 = 1
IC50 [2]: 0.93 nM
Relative affinity (Binding potency) compared to JI-38 [2]: 2.95 JI-38 = 1
Relative affinity (Binding potency) compared to hGHRH(1-29) (hGHRH(1-29)NH2 = 1) [2]: 8.22

B7: P-22325 [N-Me-Tyr^1, Gln^8, Orn^12, Abu^15, Orn^21, Nle^27, Asp^28, Apa^30]hGHRH(1-30)NH2 (peptide, from a related filing)
peptide: [NMeY]ADAIFTQSYR[Orn]VL[Abu]QLSAR[Orn]LLQDI[Nle]DR[Ava]-NH2
modifications: N-terminus assumed
SMILES: CCCC[C@H](NC(=O)[C@@H](NC(=O)[C@H](CC(=O)O)NC(=O)[C@H](CCC(N)=O)NC(=O)[C@H](CC(C)C)NC(=O)[C@H](CC(C)C)NC(=O)[C@H](CCCN)NC(=O)[C@H](CCCNC(=N)N)NC(=O)[C@H](C)NC(=O)[C@H](CO)NC(=O)[C@H](CC(C)C)NC(=O)[C@H](CCC(N)=O)NC(=O)[C@H](CC)NC(=O)[C@H](CC(C)C)NC(=O)[C@@H](NC(=O)[C@H](CCCN)NC(=O)[C@H](CCCNC(=N)N)NC(=O)[C@H](Cc1ccc(O)cc1)NC(=O)[C@H](CO)NC(=O)[C@H](CCC(N)=O)NC(=O)[C@@H](NC(=O)[C@H](Cc1ccccc1)NC(=O)[C@@H](NC(=O)[C@H](C)NC(=O)[C@H](CC(=O)O)NC(=O)[C@H](C)NC(=O)[C@H](Cc1ccc(O)cc1)NC)[C@@H](C)CC)[C@@H](C)O)C(C)C)[C@@H](C)CC)C(=O)N[C@@H](CC(=O)O)C(=O)N[C@@H](CCCNC(=N)N)C(=O)NCCCCC(N)=O
IC50 [1]: 3.8 nM
Relative affinity (Binding potency) vs JI-38 [1]: 1.14 JI-38 = 1
